Laboratory results from PMC6122992.

Target: rhodamine-labeled cyclic β-hairpin peptide (human)
Assay: fluorescence polarisation

Kd	Substance
3.5 µM	recombinant Ssa1 (from UniProt P10591 1-642) (natural protein)
46.8 µM	recombinant Ydj1 (from UniProt P25491 1-409) (natural protein)
